This passage reports Kd, percent in hexameric form and stoichiometry N results from article PMC3589475, “Large-Scale Functional Purification of Recombinant HIV-1 Capsid” (PLoS ONE, 2013).

The target of assay [1] is HIV-1 capsid (CA) (Human immunodeficiency virus 1) (UniProt O93182). The settings on record: cited from earlier work.
Assay [2] has as its target quadruple mutant (A14C/E45C/W184A/M185A) CA monomer (CA 4Mu) (HIV-1 (NL4-3 strain)). Description: AUC; sedimentation velocity, cross-linked CA 4Mu hexamer at 4.13, 8.25 and 16.5 µM (as monomers), 50 mM sodium phosphate pH 7.5, 25°C, 45,000 rpm, no reducing agent.
The target of assay [3] is wild-type HIV-1 capsid protein (WT CA) (HIV-1 (pLAI.2)) (UniProt P03348). In words: AUC; sedimentation velocity, WT CA at 0.94, 1.88, 3.75 and 7.5 µM, 50 mM sodium phosphate pH 7.5, 25°C, 45,000 rpm; monomer to dimer, at high protein concentration.

The Kd is a measure of binding affinity in units of concentration. A word on the stoichiometry N: it is the number of molecules, sites or subunits per partner or assembly.

In the case of HIV-1 capsid (CA) (from UniProt O93182), the dissociation constant Kd in assay [1] is 14 µM.

In assay [2], “quadruple mutant (A14C/E45C/W184A/M185A) CA monomer (CA 4Mu) (natural protein)” came in with a percent in hexameric form of 94% and a stoichiometry N of 6. In the case of “wild-type HIV-1 capsid protein (WT CA) (from UniProt P03348 133-363) (natural protein)”, the stoichiometry N in assay [3] stood at 2.
